{"source": "paper PMC2693429", "key": {"[1]": {"target": "6 × His-tagged PAI-2 lacking the intrahelical loop between C and D alpha-helices (PAI-2 ΔCD-loop), from pQE9 (human) (UniProt P05120)", "test": "native MS; positive ion ESI-MS (Q-TOF); 10 μM protein in 10 mM ammonium acetate pH 6.8 with 0.1% formic acid; monomeric and dimeric species seen"}, "[2]": {"target": "Recombinant Very Low Density Lipoprotein Receptor (VLDLR) ligand binding region", "test": "SPR; VLDLR immobilised on a CM5 BIAcore chip (~2,000 response units, amine coupling); analytes in 10 mM Hepes pH 7.4, 150 mM NaCl, 1 mM CaCl2, 0.005% Tween-20 at 20 μL/min; regeneration 100 mM H3PO4; blank cell as reference; 1:1 binding model"}}, "note": "pKd: −log10 of the molar value."}
{"substance": "6 × His-tagged PAI-2 lacking the intrahelical loop between C and D alpha-helices (PAI-2 ΔCD-loop), from pQE9 (from UniProt P05120 1-415) (natural protein)", "values": [{"measurement": "stoichiometry N", "setting": "[1]", "result": 2}]}
{"substance": "uPA:PAI-2 wild-type complex (from UniProt P05120 1-415)", "values": [{"measurement": "pKd", "setting": "[2]", "result": 8.32}, {"measurement": "koff", "setting": "[2]", "result": 0.00144, "unit": "s⁻¹"}, {"measurement": "kon", "setting": "[2]", "result": 375000, "unit": "M⁻¹ s⁻¹"}]}
{"substance": "uPA:PAI-2 ΔCD-loop complex (from UniProt P05120 1-415)", "values": [{"measurement": "pKd", "setting": "[2]", "result": 8.36}, {"measurement": "koff", "setting": "[2]", "result": 0.00136, "unit": "s⁻¹"}, {"measurement": "kon", "setting": "[2]", "result": 416000, "unit": "M⁻¹ s⁻¹"}]}
